Source: paper PMC11955521, “A GTP-driven central carbon metabolism in the cellulolytic bacterium Ruminiclostridium cellulolyticum” (Communications Biology, 2025)

Key:
HPLC-RI of pyruvate [1] = substrate: Nc1ncnc2c1ncn2[C@@H]1O[C@H](COP(=O)(O)OP(=O)(O)O)[C@@H](O)[C@H]1O; test: HPLC-RI of pyruvate; format: biochemical, Ruminiclostridium cellulolyticum; details: PEP 10 mM, no FBP, 20 mM MgCl2, 30 mM KCl, 25 mM HEPES pH 7.0, 37 °C, Hill fit, nH 1.41
Source text: (§1) HPLC-RI of pyruvate on Pyruvate kinase (PK)

HPLC-RI of pyruvate [2] = substrate: Nc1nc2c(ncn2[C@@H]2O[C@H](COP(=O)(O)OP(=O)(O)O)[C@@H](O)[C@H]2O)c(=O)[nH]1; test: HPLC-RI of pyruvate; format: biochemical, Ruminiclostridium cellulolyticum; details: PEP 10 mM, no FBP, 20 mM MgCl2, 30 mM KCl, 25 mM HEPES pH 7.0, 37 °C
Source text: as §1

HPLC-RI of pyruvate [3] = substrate: C=C(OP(=O)(O)O)C(=O)O; test: HPLC-RI of pyruvate; format: biochemical, Ruminiclostridium cellulolyticum; details: ADP 5 mM, no FBP, 20 mM MgCl2, 30 mM KCl, 25 mM HEPES pH 7.0, 37 °C, Hill fit, nH 1.32
Source text: as §1

HPLC-RI of products [4] = substrate: Nc1ncnc2c1ncn2[C@@H]1O[C@H](COP(=O)(O)OP(=O)(O)O)[C@@H](O)[C@H]1O; test: HPLC-RI of products; format: biochemical, Ruminiclostridium cellulolyticum; details: acetyl-P 5 mM, 20 mM MgCl2, 25 mM HEPES pH 7.0, 37 °C
Source text: (§2) HPLC-RI of products on Acetate kinase (AK)

HPLC-RI of products [5] = substrate: Nc1ncnc2c1ncn2[C@@H]1O[C@H](COP(=O)(O)OP(=O)(O)OP(=O)(O)O)[C@@H](O)[C@H]1O; test: HPLC-RI of products; format: biochemical, Ruminiclostridium cellulolyticum; details: reverse reaction, acetate 10 mM, 20 mM MgCl2, 25 mM HEPES pH 7.0, 37 °C
Source text: as §2

HPLC-RI of products [6] = substrate: Nc1nc2c(ncn2[C@@H]2O[C@H](COP(=O)(O)OP(=O)(O)O)[C@@H](O)[C@H]2O)c(=O)[nH]1; test: HPLC-RI of products; format: biochemical, Ruminiclostridium cellulolyticum; details: acetyl-P 5 mM, 20 mM MgCl2, 25 mM HEPES pH 7.0, 37 °C
Source text: as §2

HPLC-RI of products [7] = substrate: CC(=O)OP(=O)(O)O; test: HPLC-RI of products; format: biochemical, Ruminiclostridium cellulolyticum; details: ADP 10 mM, 20 mM MgCl2, 25 mM HEPES pH 7.0, 37 °C
Source text: as §2

purified protein [8] = substrate: CC(=O)O; test: purified protein; details: reverse reaction, ATP 10 mM, 20 mM MgCl2, 25 mM HEPES pH 7.0, 37 °C
[9] = substrate: Nc1ncnc2c1ncn2[C@@H]1O[C@H](COP(=O)(O)OP(=O)(O)OP(=O)(O)O)[C@@H](O)[C@H]1O; test: GAPDH-coupled NADH oxidation; format: biochemical, Ruminiclostridium cellulolyticum; details: reverse, 3-PG 4 mM, 0.3 mM NADH, 10 mM MgCl2, 50 mM phosphate pH 7.0, 15 mM cysteine, 37 °C
[10] = substrate: Nc1nc2c(ncn2[C@@H]2O[C@H](COP(=O)(O)OP(=O)(O)OP(=O)(O)O)[C@@H](O)[C@H]2O)c(=O)[nH]1; test: GAPDH-coupled NADH oxidation; format: biochemical, Ruminiclostridium cellulolyticum; details: reverse, 3-PG 25 mM, 0.3 mM NADH, 10 mM MgCl2, 50 mM phosphate pH 7.0, 15 mM cysteine, 37 °C
purified protein [11] = substrate: Nc1ncnc2c1ncn2[C@@H]1O[C@H](COP(=O)(O)OP(=O)(O)O)[C@@H](O)[C@H]1O; test: purified protein; format: biochemical, Ruminiclostridium cellulolyticum; details: forward, 3 mM glyceraldehyde-3-P, 1.1 mM NAD+, 10 mM MgCl2, 50 mM phosphate pH 7.0, 15 mM cysteine, 37 °C, 1,3-BPG concentration unknown, Hill fit, nH 4.03
purified protein [12] = substrate: Nc1nc2c(ncn2[C@@H]2O[C@H](COP(=O)(O)OP(=O)(O)O)[C@@H](O)[C@H]2O)c(=O)[nH]1; test: purified protein; format: biochemical, Ruminiclostridium cellulolyticum; details: forward, 3 mM glyceraldehyde-3-P, 1.1 mM NAD+, 10 mM MgCl2, 50 mM phosphate pH 7.0, 15 mM cysteine, 37 °C, 1,3-BPG concentration unknown, Hill fit, nH 1.63
[13] = substrate: Nc1ncnc2c1ncn2[C@@H]1O[C@H](COP(=O)(O)OP(=O)(O)OP(=O)(O)O)[C@@H](O)[C@H]1O; test: HPLC-RI, glucose consumption; format: biochemical, Escherichia coli; details: glucose 5 mM, 20 mM MgCl2, 25 mM HEPES pH 7.0, 37 °C
HPLC-RI of products [14] = substrate: Nc1ncnc2c1ncn2[C@@H]1O[C@H](COP(=O)(O)OP(=O)(O)OP(=O)(O)O)[C@@H](O)[C@H]1O; test: HPLC-RI of products; format: biochemical, Ruminiclostridium cellulolyticum; details: xylulose 2.5 mM, 20 mM MgCl2, 25 mM HEPES pH 7.0, 37 °C
Source text: (§3) HPLC-RI of products on Xylulokinase (XK)

HPLC-RI of products [15] = substrate: Nc1nc2c(ncn2[C@@H]2O[C@H](COP(=O)(O)OP(=O)(O)OP(=O)(O)O)[C@@H](O)[C@H]2O)c(=O)[nH]1; test: HPLC-RI of products; format: biochemical, Ruminiclostridium cellulolyticum; details: xylulose 2.5 mM, 20 mM MgCl2, 25 mM HEPES pH 7.0, 37 °C
Source text: as §3

HPLC-RI of products [16] = substrate: O=C(CO)[C@@H](O)[C@H](O)CO; test: HPLC-RI of products; format: biochemical, Ruminiclostridium cellulolyticum; details: GTP 10 mM, 20 mM MgCl2, 25 mM HEPES pH 7.0, 37 °C
Source text: as §3

B1: Pyruvate kinase (PK) (Ruminiclostridium cellulolyticum H10) (protein)
chain: MRRTKIICTLGPASDNEDILRKMMLGGMSLARMNFSHGTHEEHKKRADLVKKIREELNLPIPLLLDTKGPEIRTGKFKNDQAILKENNEFILVNEDILGDETKCTITYKELYKDVSRGSKILINDGLVELEVTEIKNKDIYCRVLNGGAVGNHKGINVPGAEIKLPSLTEQDIDDIKFGIKNDFDIIAASFVRKASDVVEIRKVLEKNGGKDILIIAKIENREGIKNFNDILKVSDGIMVARGDLGVEIPVEEVPIVQKNIIEKCYQNGKPVITATQMLDSMIRNPRPTRAEASDVANAIFDGTSCVMLSGETAAGKYPIETIEVMAKIAEKAEKSMDYWNRFATARTELDTSVTNAISHATCTTALDLKAAAIITVTQSGHTARMIARFRPACPIIATTANPKVQRQLNLSWGVMPYLVGIAKTTDDMFDNGVEKALESGLVKNGDLAVITAGMPAGISGTTNTLKVHIVGRVLVQGVGIGTSSVTGELCVAQNTKEAMDKFTDGNIIVAPFTDNSMLPVIKRASAIVVEEHGQSCHAATVGLALDIPVILGAENATKILKAGSVVTVDSERGLVIRCN
notes: full-length, C-terminal His tag (pET28a), E. coli BL21(DE3), Ni-NTA and anion exchange
Question: For B1, which Km (HPLC-RI of pyruvate [1]) is on record?
Answer: The Km was 1870 ± 140 µM.

Question: And the kcat (HPLC-RI of pyruvate [1])?
Answer: Its kcat is 9508 ± 328 iu/µmol.

Question: And the Km (HPLC-RI of pyruvate [2])?
Answer: Its Km is 900 ± 140 µM.

Question: And the kcat (HPLC-RI of pyruvate [2])?
Answer: Its kcat is 977 ± 48 iu/µmol.

Question: What about the Km (HPLC-RI of pyruvate [3]) of the same protein?
Answer: The Km was 1560 ± 20 µM.

Question: What about the kcat (HPLC-RI of pyruvate [3]) of the same protein?
Answer: The kcat was 9212 ± 50 iu/µmol.

B2: Acetate kinase (AK) (Ruminiclostridium cellulolyticum H10) (protein)
chain: MKVLVINAGSSSLKYQLIDMKNETVLAKGLCDRIGIDNSFIKQSRGSEEAVILNKELKNHKDAIEAVISALTDDNMGVIKNMSEISAVGHRIVHGGEKFNSSVVIDENVMNAVRECIDVAPLHNPPNIIGIEACQQIMPNIPMVAVFDTTFHSSMPDYAYLYALPYELYEKYGIRKYGFHGTSHKYVAERASAMLDKSLNELKIITCHLGNGSSICAVNKGKSIDTSMGFTPLQGLAMGTRSGTIDPEVVTFLMEKENLDVKGVSKLLNKKSGVLGISGVSSDFRDLHAAADAGNSRAELAIEIFCYGVKKFIGEYIAVMNGVDAIVFTAGVGENNSVVRNMIISDMDFLGIKIDEEKNKLRGQEVDISTADAAVRTLVIPTNEELAIARETVRLVK
notes: as for B1
Question: What does the source list for B2?
Answer: Km (HPLC-RI of products [4]): 1130 ± 210 µM; kcat (HPLC-RI of products [4]): 25,437 ± 1668 iu/µmol; Km (HPLC-RI of products [5]): 1470 ± 170 µM; kcat (HPLC-RI of products [5]): 16.68 ± 0.74 iu/µmol; Km (HPLC-RI of products [6]): 1470 ± 130 µM; kcat (HPLC-RI of products [6]): 35,365 ± 1,150 iu/µmol; Km (HPLC-RI of products [7]): 1490 ± 200 µM; kcat (HPLC-RI of products [7]): 25,112 ± 1755 iu/µmol; Km (purified protein [8]): 2370 ± 380 µM; kcat (purified protein [8]): kcat = 12.85 ± 0.85 iu/umol

B3: Phosphoglycerate kinase (PGK) (Ruminiclostridium cellulolyticum H10) (protein)
chain: MSMMNKKTIEDIDVAGKRVIVRVDFNVPLDENRKITDDKRIVGALPTIKYLVDKGAKTILVSHLGRPKEGFEDKFSMKPTAVRLGELLGKEIIMAKDVVGEDAKSKAAALKDGEVLMLENVRFHKEETKNDANFAKELASMAEIFVNDAFGTAHRAHASTAGLADYLPAVCGFLIKKEIEFMGKALANPARPFVAILGGAKVSDKIAVIENLIDKVDTLIIGGGMAYTFLKAKGYHIGNSICEEDKIDLAKTLMEKAEAKGVEIMLPIGSMVAQEFKNDTEIKYVPSDAMPDGWMGMDIGSLTIENFAKEIKKAKTVIWNGPMGVFEFPNFATGTKEIAKAVAESGALSIVGGGDSAAAVEQLGFADKITHISTGGGASLEFLEGKELPGIAVLMDKNPRKVIAAGNWKMNKTASEAVEFVNALKPAVADAKNEVVVGVPFVCLPGVVAAAKGSNIKVAAQNMHWEEKGAFTGEVSGPMLADLGVDYVIIGHSERREYFGETNEMINKKAHAIFKYGMTPIICCGETLTQREQGVTADHIRYQIKVALLDLTAEQVSKLVIAYEPIWAIGTGKTATNEQANEVCTIIRELVAELYGSEVAEHVRIQYGGSVNAKNATELFAMSDIDGGLVGGASLKVEDFSIIAKA
notes: full-length, C-terminal His tag (pET28a), E. coli BL21(DE3), Ni-NTA, anion exchange, gel filtration
Question: What does the source list for B3?
Answer: Km [9]: 480 ± 70 µM; kcat [9]: kcat = 4256 ± 148 iu/umol; Km [10]: 4660 ± 1240 µM; kcat [10]: 2831 ± 348 iu/µmol; Km (purified protein [11]): 80 ± 2 µM; kcat (purified protein [11]): 733 ± 12 iu/µmol; Km (purified protein [12]): 135 ± 8 µM; kcat (purified protein [12]): 771 ± 20 iu/µmol

B4: E. coli glucokinase (GLK) (Escherichia coli K-12) (protein)
chain: MTKYALVGDVGGTNARLALCDIASGEISQAKTYSGLDYPSLEAVIRVYLEEHKVEVKDGCIAIACPITGDWVAMTNHTWAFSIAEMKKNLGFSHLEIINDFTAVSMAIPMLKKEHLIQFGGAEPVEGKPIAVYGAGTGLGVAHLVHVDKRWVSLPGEGGHVDFAPNSEEEAIILEILRAEIGHVSAERVLSGPGLVNLYRAIVKADNRLPENLKPKDITERALADSCTDCRRALSLFCVIMGRFGGNLALNLGTFGGVFIAGGIVPRFLEFFKASGFRAAFEDKGRFKEYVHDIPVYLIVHDNPGLLGSGAHLRQTLGHIL
notes: full-length, C-terminal His tag (pET22b+), E. coli BL21(DE3), Ni-NTA and anion exchange
Question: Which Km [13] does the source give for B4 here?
Answer: The Km was 2470 ± 390 µM.

B5: Xylulokinase (XK) (Ruminiclostridium cellulolyticum H10) (protein)
chain: MSFLIGIDLGTSGVKTVLFDEAGKPVASSTVEYPLYQPNLGWAEQDPEEWWKGTCESINNVMLKSGVDKREVKGIGLSGQMHGAVLLDKDDKVLRNAIIWCDQRSAAECDEITDLIGRERLIEITANPALTGFTASKIMWVKNNEPQIFEKIAKILLPKDYIRFRLTGEYATEVSDASGMQLMNIAKREWSIEVLDKLGLSTSMLGKMYESQEVTGKVTSSAADQTGLNAGTIVVGGGGDQAAGAVGNGIVKSGIVSSTIGTSGVVFAYTDKLTIDPLGRVHTFCHAVPNTYHVMGVTQGAGLSLKWFRDNFCMEEMMTSELSDIDVYKLLDAEAETIKPCSDGLVYLPYLMGERTPHLDPNAKGVFFGLTAKHTKPHFIRSIMEGVTFSLRDCLEIIKGMGVDVSEVRASGGGGKSGIWRQMQADVFGTNINRIRSDEGPALGVAILAGVGAGIYDSVPQACEEVIKVKDTLAPVEDRIKKYDDFYKLYTKLYKSLKDDFNQLSTILK
notes: as for B1
Question: What does the source list for B5?
Answer: Km (HPLC-RI of products [14]): 1180 ± 180 µM; kcat (HPLC-RI of products [14]): 6653 ± 281 iu/µmol; Km (HPLC-RI of products [15]): 120 ± 20 µM; kcat (HPLC-RI of products [15]): 6540 ± 177 iu/µmol; Km (HPLC-RI of products [16]): 300 ± 70 µM; kcat (HPLC-RI of products [16]): 8788 ± 375 iu/µmol
